According to patent US20180037644A1 (Pfizer, published 2018):
Substitutions are numbered along the chain they refer to.

Key:
[1] = target: T1, wild-type cynomolgus monkey IL-33 (cynomolgus monkey); assay: SPR, Experiment 1; reference: human IL-33 (WT + DTT)
T1 construct: Used reduced (DTT-treated); His6 in the entry; also called cyno IL-33 (WT + DTT); pfe cyno WT IL-33
T1 chain: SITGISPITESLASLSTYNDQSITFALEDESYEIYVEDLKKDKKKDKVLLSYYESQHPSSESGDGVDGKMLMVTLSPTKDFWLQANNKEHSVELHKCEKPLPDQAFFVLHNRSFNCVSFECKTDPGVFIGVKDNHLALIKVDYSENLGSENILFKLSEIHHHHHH
Procedure: (§1) Biacore kinetic assays were conducted at 37° C. at a collection rate of 1 Hz on a Biacore T200 instrument (GE Healthcare). Reduced and non-reduced wild-type human IL-33 and reduced wild-type cynomolgus monkey IL-33 were covalently coupled to a CM5 sensor chip (catalogue number BR100530, GE Healthcare) using an amine coupling kit (catalogue number BR100050, GE Healthcare) according to the manufacturer's protocol. Flow cell 1 was activated and blocked for use as a reference flow cell. […] The dilution and running buffer was HBS-EP+(10 mM HEPES pH 7.4, 0.15M NaCl, 3 mM EDTA, 0.05% P-20). Rate constants and affinities were determined by fitting the resulting sensorgram data to a 1:1 model in Biacore T200 Evaluation software version 1.0 (GE Healthcare). […] Kinetic properties of the bivalent IgG cannot be directly compared to those of monovalent Fab fragments and are not presented here.

[2] = target: T1, wild-type cynomolgus monkey IL-33; assay: SPR, Experiment 2; reference: human IL-33 (WT + DTT)
Procedure: as §1

human IL-33 (mm2) = target: T2, human IL-33 (mm2) (human, UniProt O95760 112-270); assay: SPR, IL-33 amine-coupled to CM5, Fab in solution, 37 C
T2 construct: Variant in which all four cysteine residues are serine; the entry carries an N-terminal Met and a C-terminal His6; Biotinylated in some assays; also called hIL-33 (mm2); huIL-33 (mm2)
T2 chain: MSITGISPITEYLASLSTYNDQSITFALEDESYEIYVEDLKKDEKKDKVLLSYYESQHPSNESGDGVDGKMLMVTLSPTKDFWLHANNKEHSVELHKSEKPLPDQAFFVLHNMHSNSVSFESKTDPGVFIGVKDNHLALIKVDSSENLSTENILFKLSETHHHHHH
Procedure: (§2) Biacore kinetic assays were conducted at 37° C. at a collection rate of 1 Hz on a Biacore T200 instrument (GE Healthcare). Human IL33 (mm2), cynomolgus monkey IL-33, and reduced huIL33 wt were covalently coupled to a CM5 sensor chip (catalogue number BR100530, GE Healthcare) using an amine coupling kit (catalogue number BR100050, GE Healthcare) according to the manufacturer's protocol. […] The dilution and running buffer was HBS-EP+(10 mM HEPES pH 7.4, 0.15M NaCl, 3 mM EDTA, 0.05% P-20). Rate constants and affinities were determined by fitting the resulting sensorgram data to a 1:1 model in Biacore T200 Evaluation software version 1.0 (GE Healthcare).

[3] = target: T3, human IL-33 WT, reduced with DTT (human, UniProt O95760 112-270); assay: as above
T3 construct: Wild-type cysteines, FLAG tag in the entry; reduced with 3 mM DTT before use; also called huIL33 wt; hu IL-33 (WT + DTT)
T3 sequence: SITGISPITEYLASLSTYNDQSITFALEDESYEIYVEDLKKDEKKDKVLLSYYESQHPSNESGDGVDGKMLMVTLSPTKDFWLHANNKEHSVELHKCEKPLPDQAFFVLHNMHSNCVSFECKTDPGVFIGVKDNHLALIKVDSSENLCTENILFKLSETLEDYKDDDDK
Procedure: as §2

[4] = target: T4, cynomolgus monkey IL-33 (cys mut) (cynomolgus monkey); assay: as above
T4 construct: Variant in which the three cysteine residues are serine; N-terminal Met and C-terminal His6 in the entry; also called cyno IL-33; cyno IL-33 (cys mut)
T4 chain: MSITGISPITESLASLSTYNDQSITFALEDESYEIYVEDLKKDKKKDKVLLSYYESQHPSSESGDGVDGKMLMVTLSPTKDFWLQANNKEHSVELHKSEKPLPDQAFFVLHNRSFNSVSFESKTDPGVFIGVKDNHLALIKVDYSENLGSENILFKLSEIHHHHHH
Procedure: as §2

[5] = target: T3, human IL-33 WT, reduced with DTT; assay: SPR, IL-33 amine-coupled to CM5, Fab in solution, 37 C, Experiment 1
Procedure: as §1

[6] = target: T1, wild-type cynomolgus monkey IL-33; assay: as above
Procedure: as §1

[7] = target: T3, human IL-33 WT, reduced with DTT; assay: SPR, IL-33 amine-coupled to CM5, Fab in solution, 37 C, Experiment 2
Procedure: as §1

[8] = target: T1, wild-type cynomolgus monkey IL-33; assay: as above
Procedure: as §1

IL-1α = target: T5, IL-1α (UniProt P01583 113-271); assay: SPR (Biacore T200), Fab captured on the chip, cytokine injected
T5 sequence (looked up): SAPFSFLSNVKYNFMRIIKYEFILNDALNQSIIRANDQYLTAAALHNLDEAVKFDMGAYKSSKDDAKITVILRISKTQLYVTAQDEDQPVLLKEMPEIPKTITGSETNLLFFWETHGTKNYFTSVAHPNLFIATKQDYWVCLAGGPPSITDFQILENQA
Description: (§3) The panel of cytokines included IL-1α, IL-1β, IL-18, IL-36α, and IL-36γ.

IL-1β = IL-1β (UniProt P01584 117-269); assay: as above
Description: as §3

IL-18 = target: T6, IL-18 (UniProt Q14116 37-193); assay: as above
T6 sequence (looked up): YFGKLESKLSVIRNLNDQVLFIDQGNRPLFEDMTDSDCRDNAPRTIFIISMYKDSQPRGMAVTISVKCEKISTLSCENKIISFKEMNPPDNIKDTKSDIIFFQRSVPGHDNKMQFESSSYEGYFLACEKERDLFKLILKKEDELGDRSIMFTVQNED
Description: as §3

IL-36α = target: T7, IL-36α (UniProt Q9UHA7 6-158); assay: as above
T7 sequence (looked up): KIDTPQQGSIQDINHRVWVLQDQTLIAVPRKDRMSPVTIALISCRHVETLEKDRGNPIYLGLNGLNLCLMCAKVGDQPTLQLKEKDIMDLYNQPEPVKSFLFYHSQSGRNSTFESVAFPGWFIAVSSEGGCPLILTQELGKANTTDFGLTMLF
Description: as §3

IL-36γ = target: T8, IL-36γ (UniProt Q9NZH8 18-169); assay: as above
T8 sequence (looked up): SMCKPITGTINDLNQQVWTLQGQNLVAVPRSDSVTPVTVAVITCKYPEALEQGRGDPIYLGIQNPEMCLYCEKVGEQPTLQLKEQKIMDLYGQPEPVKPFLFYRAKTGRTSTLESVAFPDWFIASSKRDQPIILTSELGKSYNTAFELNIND
Description: as §3

[9] = target: T3, human IL-33 WT, reduced with DTT; assay: SPR, IL-33 amine-coupled to CM5, rat Fab in solution, 37 C
Procedure: Parallel studies were performed with non-reduced IL-33 and with IL-33 samples that had been reduced with 3 mM DTT for 3 hr. at room temperature prior to immobilization. […] Flow cell 1 was activated and blocked for use as a reference flow cell. […] Dissociation was monitored for 3600 seconds. Biacore kinetic assays were conducted at 37° C. at a collection rate of 1 Hz on a Biacore T200 instrument (GE Healthcare). Rate constants and affinities were determined by fitting the resulting sensorgram data to a 1:1 model in Biacore T200 Evaluation software version 1.0 (GE Healthcare).

B1: IL33-158LS Fab (Fab, V domains shown)
VH: EVQLVESGGGLVQPGGSLRLSCAASGFTFSSYWMYWVRQAPGKGLEWVAAITPNAGEDYYPESVKGRFTISRDNAKNSLYLQMNSLRAEDTAVYYCARGHYYYTSYSLGYWGQGTLVTVSS
VL: DIQMTQSPSSLSASVGDRVTITCKASQNINKHLDWYQQKPGKAPKLLIYFTNNLQTGVPSRFSGSGSGTDFTLTISSLQPEDFATYYCFQYNQGWTFGGGTKVEIKR
Ratio of cynomolgus monkey KD/human KD [1]: 1.3
Ratio of cynomolgus monkey KD/human KD [2]: 2.3
Kd (human IL-33 (mm2)): 0.013 nM
koff (human IL-33 (mm2)): 3.09e-05 s⁻¹
kon (human IL-33 (mm2)): 2.42e+06 M⁻¹ s⁻¹
Kd [3]: 0.0696 nM
koff [3]: 0.000129 s⁻¹
kon [3]: 1.86e+06 M⁻¹ s⁻¹
Kd [4]: 0.0104 nM
koff [4]: 1.71e-05 s⁻¹
kon [4]: 1.64e+06 M⁻¹ s⁻¹
Kd [5]: 0.106 nM
koff [5]: 0.00033 s⁻¹
kon [5]: 3.13e+06 M⁻¹ s⁻¹
Kd [6]: 0.139 nM
koff [6]: 0.00062 s⁻¹
kon [6]: 4.5e+06 M⁻¹ s⁻¹
Kd [7]: 0.101 nM
koff [7]: 0.000417 s⁻¹
kon [7]: 4.11e+06 M⁻¹ s⁻¹
Kd [8]: 0.228 nM
koff [8]: 0.00121 s⁻¹
kon [8]: 5.32e+06 M⁻¹ s⁻¹
binding result (IL-1α): no binding
binding result (IL-1β): no binding
binding result (IL-18): no binding
binding result (IL-36α): no binding
binding result (IL-36γ): no binding

B2: IL33-167LS Fab (Fab, V domains shown)
VH: B1 VH with A50S, E62D
VL: B1 VL with Q93N
Ratio of cynomolgus monkey KD/human KD [1]: 1.5
Ratio of cynomolgus monkey KD/human KD [2]: 2.5
Kd (human IL-33 (mm2)): 0.0101 nM
koff (human IL-33 (mm2)): 4.8e-05 s⁻¹
kon (human IL-33 (mm2)): 4.75e+06 M⁻¹ s⁻¹
Kd [3]: 0.0452 nM
koff [3]: 6.56e-05 s⁻¹
kon [3]: 1.45e+06 M⁻¹ s⁻¹
Kd [4]: 0.0134 nM
koff [4]: 2.09e-05 s⁻¹
kon [4]: 1.57e+06 M⁻¹ s⁻¹
Kd [5]: 0.091 nM
koff [5]: 0.000276 s⁻¹
kon [5]: 3.03e+06 M⁻¹ s⁻¹
Kd [6]: 0.139 nM
koff [6]: 0.000665 s⁻¹
kon [6]: 4.81e+06 M⁻¹ s⁻¹
Kd [7]: 0.089 nM
koff [7]: 0.00035 s⁻¹
kon [7]: 3.96e+06 M⁻¹ s⁻¹
Kd [8]: 0.218 nM
koff [8]: 0.00119 s⁻¹
kon [8]: 5.5e+06 M⁻¹ s⁻¹

B3: IL33-265 Fab (Fab, V domains shown)
VH: EVQLVESGGNLEQPGGSLRLSCTASGFTFSRSAMNWVRRAPGKGLEWVSGISGSGGRTYYADSVKGRFTISRDNSKNTLYLQMNSLSAEDTAAYYCAKDSYTTSWYGGMDVWGHGTTVTVSS
VL: DIQMTQSPSSVSASVGDRVTITCRASQGIFSWLAWYQQKPGKAPKLLIYAASSLQSGVPSRFSGSGSGTDFTLTISSLQPEDFAIYYCQQANSVPITFGQGTRLEIKR
notes: Fab fragment
Ratio of cynomolgus monkey KD/human KD [2]: 57.8
Kd [7]: 0.028 nM
koff [7]: 8.07e-05 s⁻¹
kon [7]: 2.89e+06 M⁻¹ s⁻¹
Kd [8]: 1.62 nM
koff [8]: 0.0038 s⁻¹
kon [8]: 2.58e+06 M⁻¹ s⁻¹

B4: rat 7E8 Fab (Fab, V domains shown)
VH: EVQLVETGGGLVQPGRSLKLSCKTSGFTFSSYWMYWIRQAPGKGLEWVSSITPNGGNTYYPDSVKGRFTISRDNAENTIYLQMSSLRSEDTATYFCAKGHYYYTSYSLGYWGQGSLVTVSS
VL: EIQMTQSPSVLSASVGDRVTLSCKASQNINKHLDWYQQKLGEAPKLLIYFTNNLQTGIPSRFSGSGSGTDCTLTINSLQPGDVATYFCFQYNNGWTFGGGTKLELD
notes: Fab of the parental rat antibody; also called parental rat Fab 7E8
Kd [9]: 0.0442 nM
koff [9]: 0.000116 s⁻¹
kon [9]: 2.55e+06 M⁻¹ s⁻¹
